Each block holds one binder with its values, some of them ahead of it.
What was measured:
[1] = target: biotinylated multidomain FZD3 (C-terminally truncated, in detergent) (human) (UniProt Q9NPG1); assay: BLI; Octet Red 96e; biotinylated multidomain FZD3 or FZD6 in detergent immobilised, nanobody or DEP in solution; 10 mM HEPES pH 7.5, 150 mM NaCl, 0.02% Tween 20, 0.005% GDN; 1:1 binding model
[2] = target: biotinylated FZD6 cysteine-rich domain (CRD) (human); assay: BLI; Octet Red 96e; biotinylated FZD3 or FZD6 CRD immobilised, Nb8 or Wnt5a in solution; 10 mM HEPES pH 7.5, 150 mM NaCl, 0.02% Tween 20, 0.005% GDN; 1:1 binding model
biotinylated FZD6 cysteine-rich domain (CRD) (human), sequence (O60353 22-139): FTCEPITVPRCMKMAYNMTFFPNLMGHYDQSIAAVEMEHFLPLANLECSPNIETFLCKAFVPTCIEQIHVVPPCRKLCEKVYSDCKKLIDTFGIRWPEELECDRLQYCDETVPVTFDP

[3] = target: biotinylated FZD3 cysteine-rich domain (CRD) (human) (UniProt Q9NPG1); assay: as above

- Kd [1]: 460 nM
B1: DVL2 DEP domain (domain or fragment)
chain: PESGLEVRDRMWLKITIPNAFLGSDVVDWLYHHVEGFPERREARKYASGLLKAGLIRHTVNKITFSEQCYYVFGD

- Kd [2]: 1200 nM
B2: Nb8 (VHH)
VHH: QVQLVESGGGLVQAGGSLRLSCAASGSISSINAMGWYRQAPGKQRELVAAITSGGSTNYADSVKGRFTISRDNAKNTVYLQMNSLKPGDTAVYYCNLLYYIDYVEYDYWGQGTQVTVSS

- Kd [3]: 83 nM
B3: human Wnt5a (ligand)
chain: IIGAQPLCSQLAGLSQGQKKLCHLYQDHMQYIGEGAKTGIKECQYQFRHRRWNCSTVDNTSVFGRVMQIGSRETAFTYAVSAAGVVNAMSRACREGELSTCGCSRAARPKDLPRDWLWGGCGDNIDYGYRFAKEFVDARERERIHAKGSYESARILMNLHNNEAGRRTVYNLADVACKCHGVSGSCSLKTCWLQLADFRKVGDALKEKYDSAAAMRLNSRGKLVQVNSRFNSPTTQDLVYIDPSPDYCVRNESTGSLGTQGRLCNKTSEGMDGCELMCCGRGYDQFKTVQTERCHCKFHWCCYVKCKKCTEIVDQFVCK

— article PMC11341715
